The supplement of paper PMC9112550, “Optimization of the antimicrobial peptide Bac7 by deep mutational scanning” (BMC Biology, 2022)

tested on: Escherichia coli TOP10; assay: shrunken log2 fold change of peptide-encoding DNA abundance (4.5 h post-induction vs induction); higher = less antimicrobial activity (less host growth inhibition); conditions: time post-induction: 4.5 h; library: site-saturation at positions 5, 18, 19, 20
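Also: peptides expressed intracellularly from a pBAD plasmid library in pooled LB shake-flask culture, induced with 0.3% L-arabinose, DNA abundance read by NGS, three biological replicates, DESeq2 with apeglm shrinkage.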

| Sequence | shrunken log2 fold change |
| --- | --- |
| RRIRNRPPRLPRPRPRPHIVPRP | -0.249 |
| RRIRNRPPRLPRPRPRPEHVPRP | -0.0119 |
| RRIRNRPPRLPRPRPRPIPIPRP | -0.0823 |
| RRIRLRPPRLPRPRPRPQAKPRP | -0.0308 |
| RRIRDRPPRLPRPRPRPSNKPRP | -0.325 |
| RRIRVRPPRLPRPRPRPWCFPRP | -0.0951 |
| RRIRQRPPRLPRPRPRPQMTPRP | -0.106 |
| RRIRWRPPRLPRPRPRPPQTPRP | 0.169 |
| RRIRWRPPRLPRPRPRPRGHPRP | 0.404 |
| RRIRARPPRLPRPRPRPSVFPRP | 0.461 |
| RRIRLRPPRLPRPRPRPWSEPRP | 0.0878 |
| RRIRNRPPRLPRPRPRPSGRPRP | -0.0659 |
| RRIRTRPPRLPRPRPRPYSCPRP | -0.0718 |
| RRIRLRPPRLPRPRPRPVTDPRP | -0.325 |
| RRIRMRPPRLPRPRPRPWLRPRP | 0.0433 |
| RRIRGRPPRLPRPRPRPMIDPRP | 0.967 |
| RRIRKRPPRLPRPRPRPSIWPRP | -0.0618 |
| RRIRCRPPRLPRPRPRPRDVPRP | 0.227 |
| RRIRLRPPRLPRPRPRPYAEPRP | -0.101 |
| RRIRMRPPRLPRPRPRPMCKPRP | 0.00898 |
| RRIRRRPPRLPRPRPRPCYKPRP | -0.202 |
| RRIRSRPPRLPRPRPRPAVVPRP | -0.0261 |

| Sequence | shrunken log2 fold change |
| --- | --- |
| RRIRQRPPRLPRPRPRPKNSPRP | -0.536 |
| RRIRVRPPRLPRPRPRPPDFPRP | 0.0119 |
| RRIRVRPPRLPRPRPRPQPIPRP | -0.375 |
| RRIRDRPPRLPRPRPRPGVDPRP | 1.36 |
| RRIRPRPPRLPRPRPRPCPFPRP | -0.371 |
| RRIRERPPRLPRPRPRPYSVPRP | -0.114 |
| RRIRYRPPRLPRPRPRPREEPRP | 0.0202 |
| RRIRRRPPRLPRPRPRPGIRPRP | 0.108 |
| RRIRSRPPRLPRPRPRPHIGPRP | -0.0154 |
| RRIRDRPPRLPRPRPRPMPFPRP | 0.00571 |
| RRIRHRPPRLPRPRPRPNKKPRP | -0.0825 |
| RRIRGRPPRLPRPRPRPVFTPRP | 0.523 |
| RRIRWRPPRLPRPRPRPMIIPRP | -0.0264 |
| RRIRLRPPRLPRPRPRPFDRPRP | -0.38 |
| RRIRPRPPRLPRPRPRPIAVPRP | -0.0448 |
| RRIRARPPRLPRPRPRPCNPPRP | -0.0307 |
| RRIRNRPPRLPRPRPRPQCRPRP | -0.132 |
| RRIRNRPPRLPRPRPRPHDWPRP | 0.263 |
| RRIRERPPRLPRPRPRPIFWPRP | 0.167 |
| RRIRSRPPRLPRPRPRPDKNPRP | -0.105 |
| RRIRMRPPRLPRPRPRPGRTPRP | 0.894 |
| RRIRYRPPRLPRPRPRPCTMPRP | -0.347 |

| Sequence | shrunken log2 fold change |
| --- | --- |
| RRIRIRPPRLPRPRPRPSRQPRP | -0.747 |
| RRIRYRPPRLPRPRPRPKPCPRP | -0.0304 |
| RRIRIRPPRLPRPRPRPKNDPRP | -0.867 |
| RRIRPRPPRLPRPRPRPHKIPRP | -0.193 |
| RRIRTRPPRLPRPRPRPSNYPRP | -1.22 |
| RRIRGRPPRLPRPRPRPEHFPRP | 0.00955 |
| RRIRMRPPRLPRPRPRPPQVPRP | 0.995 |
| RRIRLRPPRLPRPRPRPHGVPRP | -0.0127 |
| RRIRCRPPRLPRPRPRPYSIPRP | -0.608 |
| RRIRRRPPRLPRPRPRPTTWPRP | 0.28 |
| RRIRARPPRLPRPRPRPFRFPRP | 0.0596 |
| RRIRRRPPRLPRPRPRPHAPPRP | 0.353 |
| RRIRWRPPRLPRPRPRPCNMPRP | -0.179 |
| RRIRYRPPRLPRPRPRPSWGPRP | -0.154 |
| RRIRVRPPRLPRPRPRPYVSPRP | -0.084 |
| RRIRKRPPRLPRPRPRPDGNPRP | 0.00833 |
| RRIRARPPRLPRPRPRPKASPRP | 0.256 |
| RRIRYRPPRLPRPRPRPKHMPRP | -0.991 |
| RRIRMRPPRLPRPRPRPENTPRP | 0.427 |
| RRIRPRPPRLPRPRPRPPRIPRP | 0.233 |
| RRIRRRPPRLPRPRPRPLMMPRP | 0.8 |
| RRIRTRPPRLPRPRPRPDREPRP | -0.0115 |

| Sequence | shrunken log2 fold change |
| --- | --- |
| RRIRWRPPRLPRPRPRPYPNPRP | -0.58 |
| RRIRIRPPRLPRPRPRPMDEPRP | 0.00773 |
| RRIRLRPPRLPRPRPRPKCAPRP | 0.0163 |
| RRIRHRPPRLPRPRPRPMIVPRP | 0.0837 |
| RRIRVRPPRLPRPRPRPECEPRP | 0.605 |
| RRIRNRPPRLPRPRPRPGLDPRP | 0.00266 |
| RRIRCRPPRLPRPRPRPWNQPRP | -0.516 |
| RRIRIRPPRLPRPRPRPHCHPRP | -0.394 |
| RRIRNRPPRLPRPRPRPYGQPRP | -0.124 |
| RRIRCRPPRLPRPRPRPLVFPRP | -0.317 |
| RRIRERPPRLPRPRPRPTGWPRP | 0.0993 |
| RRIRGRPPRLPRPRPRPQLLPRP | 0.253 |
| RRIRFRPPRLPRPRPRPNLTPRP | -0.347 |
| RRIRMRPPRLPRPRPRPDTYPRP | 0.0447 |
| RRIRERPPRLPRPRPRPFLLPRP | -0.688 |
| RRIRSRPPRLPRPRPRPGPVPRP | 0.384 |
| RRIRVRPPRLPRPRPRPKIHPRP | -0.205 |
| RRIRNRPPRLPRPRPRPTCRPRP | 0.142 |
| RRIRERPPRLPRPRPRPRDNPRP | -0.321 |
| RRIRQRPPRLPRPRPRPFCPPRP | -0.236 |
| RRIRTRPPRLPRPRPRPPWDPRP | 0.294 |
| RRIRDRPPRLPRPRPRPPERPRP | 0.0665 |

| Sequence | shrunken log2 fold change |
| --- | --- |
| RRIRFRPPRLPRPRPRPDAVPRP | -0.0144 |
| RRIRRRPPRLPRPRPRPVVIPRP | 0.0625 |
| RRIRRRPPRLPRPRPRPREMPRP | 0.513 |
| RRIRLRPPRLPRPRPRPLWTPRP | -0.0559 |
| RRIRGRPPRLPRPRPRPIDTPRP | 0.306 |
| RRIRVRPPRLPRPRPRPVYPPRP | -0.389 |
| RRIRMRPPRLPRPRPRPKIIPRP | 0.102 |
| RRIRRRPPRLPRPRPRPDQTPRP | 0.0174 |
| RRIRSRPPRLPRPRPRPLYSPRP | -0.442 |
| RRIRMRPPRLPRPRPRPFWCPRP | 0.314 |
| RRIRMRPPRLPRPRPRPKIFPRP | 0.0739 |
| RRIRMRPPRLPRPRPRPPFKPRP | 0.173 |
| RRIRMRPPRLPRPRPRPHKCPRP | 0.0429 |
| RRIRKRPPRLPRPRPRPWWVPRP | 0.404 |
| RRIRERPPRLPRPRPRPFEYPRP | 0.0143 |
| RRIRCRPPRLPRPRPRPPQIPRP | 0.328 |
| RRIRYRPPRLPRPRPRPFSTPRP | -0.0961 |
| RRIRRRPPRLPRPRPRPNLPPRP | 0.0123 |
| RRIRYRPPRLPRPRPRPHINPRP | -0.806 |
| RRIRARPPRLPRPRPRPFGKPRP | 0.0252 |
| RRIRNRPPRLPRPRPRPFKIPRP | -0.0688 |
